Broadly, the Kd is the concentration at which binding is half-saturated. Read a low Kd as higher affinity.

We go through one molecule from article doi:10.1101/2024.07.24.604955, “Unraveling the Role of Ctla-4 in Intestinal Immune Homeostasis: Insights from a novel Zebrafish Model of Inflammatory Bowel Disease” (bioRxiv, 2024).

Assay [1] addresses T1, Ctla-4 with EGFP-tag (labeled protein of the MST assay) (zebrafish).
T1 construct: zebrafish Ctla-4 (XM_005167519.4)
Put plainly: MST; Monolith NT.115; labeled proteins (Cd28/Ctla-4 with EGFP-tag) incubated with 16 doubling dilutions of unlabeled Cd80/86 from 3.2 µM, 10 min at room temperature; 25℃, 40% LED, medium MST power.

Assay [2] deals with T2, Cd28 with EGFP-tag (labeled protein of the MST assay) (zebrafish).
T2 construct: zebrafish Cd28; identifier not given
T2 sequence (partner, as listed by the source): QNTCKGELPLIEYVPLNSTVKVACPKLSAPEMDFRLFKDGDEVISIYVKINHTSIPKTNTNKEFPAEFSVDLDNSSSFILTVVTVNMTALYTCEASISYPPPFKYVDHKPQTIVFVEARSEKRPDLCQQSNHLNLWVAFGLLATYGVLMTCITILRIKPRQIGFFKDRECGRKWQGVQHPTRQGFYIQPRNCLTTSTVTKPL
Described as above.

T1 sequence (partner, as listed by the source): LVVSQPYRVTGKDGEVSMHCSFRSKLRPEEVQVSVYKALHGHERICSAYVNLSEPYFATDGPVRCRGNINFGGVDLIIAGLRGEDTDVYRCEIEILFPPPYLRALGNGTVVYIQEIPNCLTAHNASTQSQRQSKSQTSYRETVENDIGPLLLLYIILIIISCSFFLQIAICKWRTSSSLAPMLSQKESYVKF

B1: soluble Cd80/86 (extracellular domain) (domain or fragment)
chain: DNSQPKNISAVVGRSVTFRCPWNLSIPVYRLYIQKLENQPLFINGFNNGKKLPVSPEYQDRTEVNQAELSMEMTNIKLSDEGSYECVVFSSTSSRDIFQINLKVTAEFTTPESKSECSENDGAKKGRSCQMSCSAAGGYPVSDVKWLGLNQSRIRVLQNETAENSTSKTWSVNQTINYTCEHPINVSCDIGGSDSHTITICEAESFPLK
In the case of B1, the Kd in assay [1] was found to be 500 nM; in assay [2], 2640 nM.
